According to publication PMC7871196 (Cell reports, 2021):
Where no end group is shown, it is not given here. The star is where a group is joined. Biotin = O=C1N[C@H]2[C@H](CS[C@H]2CCCCC(=O)*)N1

B1: Peptide PDPK1 WT: NH2-ARTTSQLYDAVPIQSS-GGY-K(biotin) (peptide)
peptide: H-ARTTSQLYDAVPIQSSGGYK(Biotin)
B2: Peptide acetyl PDPK1 WT 15-mer: Acetyl-ARTTSQLYDAVPIQS-amidated (peptide)
peptide: Ac-ARTTSQLYDAVPIQS-NH2
B3: Peptide acetyl PDPK1 WT 10-mer: Acetyl - ARTTSQLYDA-amidated (peptide)
peptide: Ac-ARTTSQLYDA-NH2

Experiments:
[1] = biological target: recombinant 6xHis-SUMO-WDR5 (22-334) (human, UniProt P61964 22-334); assay: pull-down
[2] = biological target: 6xHis-tagged WDR5 (24-334) (human, UniProt P61964 24-334); assay: AlphaScreen or HTRF

Row | Binder | binding result [1] | binding result [2]
1 | B1 | binds | 
2 | B2 |  | binds
3 | B3 |  | binds
